First the molecules themselves.
B1: target 1 MT 5'PFS UCG 3'PFS UUU (mixed)
RNA 1: CACCCGUGCAAAAAUGCAGGGGUCUAAAACUGAGCGGAUAACCUCUCUAUGG
RNA 2: GGGAAUGGAUCCACAUCUACGAAUUCUCGCCAUAGAGAGGUUAUCCGCUCAUUUAGAUCGGAAGAGCACACGU
B2: target 1 MT 5'PFS GGG 3'PFS CAU (mixed)
RNA 1: B1 RNA 1
RNA 2: B1 RNA 2 with U27G, C28G, U52C, U53A
B3: target 1 MT 5'PFS GCA 3'PFS UUG (mixed)
RNA 1: B1 RNA 1
RNA 2: B1 RNA 2 with U27G, G29A, U54G
B4: target 1 MT 5'PFS UCC 3'PFS ACU (mixed)
RNA 1: B1 RNA 1
RNA 2: B1 RNA 2 with G29C, U52A, U53C
B5: target 1 MT 5'PFS GCU 3'PFS UAU (mixed)
RNA 1: B1 RNA 1
RNA 2: B1 RNA 2 with U27G, G29U, U53A
B6: target 1 MT 5'PFS AAA 3'PFS UGA (mixed)
RNA 1: B1 RNA 1
RNA 2: B1 RNA 2 with U27A, C28A, G29A, U53G, U54A
B7: target 1 MT 5'PFS AGC 3'PFS AAA (mixed)
RNA 1: B1 RNA 1
RNA 2: B1 RNA 2 with U27A, C28G, G29C, U52A, U53A, U54A
B8: target 1 A1C,C4A (mixed)
RNA 1: B1 RNA 1
RNA 2: B1 RNA 2 with U27G, C28U, G29A, C48A, A51C, U52C, U53C, U54G
B9: target 1 MT 5'PFS GGG 3'PFS ACG (mixed)
RNA 1: B1 RNA 1
RNA 2: B1 RNA 2 with U27G, C28G, U52A, U53C, U54G
B10: target 1 MT 5'PFS AAA 3'PFS UGU (mixed)
RNA 1: B1 RNA 1
RNA 2: B1 RNA 2 with U27A, C28A, G29A, U53G
B11: target 1 MT 5'PFS UCC 3'PFS ACG (mixed)
RNA 1: B1 RNA 1
RNA 2: B1 RNA 2 with G29C, U52A, U53C, U54G
B12: target 1 MT 5'PFS GGG 3'PFS CAC (mixed)
RNA 1: B1 RNA 1
RNA 2: B1 RNA 2 with U27G, C28G, U52C, U53A, U54C
B13: target 1 MT 5'PFS GCA 3'PFS UUU (mixed)
RNA 1: B1 RNA 1
RNA 2: B1 RNA 2 with U27G, G29A
B14: target 1 MT 5'PFS GGG 3'PFS ACA (mixed)
RNA 1: B1 RNA 1
RNA 2: B1 RNA 2 with U27G, C28G, U52A, U53C, U54A
B15: target 1 MT 5'PFS GGG 3'PFS AAU (mixed)
RNA 1: B1 RNA 1
RNA 2: B1 RNA 2 with U27G, C28G, U52A, U53A
B16: target 1 MT 5'PFS CCU 3'PFS UCC (mixed)
RNA 1: B1 RNA 1
RNA 2: B1 RNA 2 with U27C, G29U, U53C, U54C
B17: target 1 MT 5'PFS GGG 3'PFS CAG (mixed)
RNA 1: B1 RNA 1
RNA 2: B1 RNA 2 with U27G, C28G, U52C, U53A, U54G
B18: target 1 MT 5'PFS GAA 3'PFS CUU (mixed)
RNA 1: B1 RNA 1
RNA 2: B1 RNA 2 with U27G, C28A, G29A, U52C
B19: target 1 MT 5'PFS CUU 3'PFS AAC (mixed)
RNA 1: B1 RNA 1
RNA 2: B1 RNA 2 with U27C, C28U, G29U, U52A, U53A, U54C
B20: target 1 MT 5'PFS CCU 3'PFS AUA (mixed)
RNA 1: B1 RNA 1
RNA 2: B1 RNA 2 with U27C, G29U, U52A, U54A
B21: target 1 del2 (mixed)
RNA 1: B1 RNA 1
RNA 2: GGGAAUGGAUCCACAUCUACGAAUUCGUACCAUAGAGAGGUUAUCCGCUACCGAGAUCGGAAGAGCACACGU
B22: target 1 del1 (mixed)
RNA 1: B1 RNA 1
RNA 2: B21 RNA 2 with A50C
B23: target 1 MT 5'PFS UCG 3'PFS CUA (mixed)
RNA 1: B1 RNA 1
RNA 2: B1 RNA 2 with U52C, U54A
B24: target 1 MT 5'PFS GCU 3'PFS AGA (mixed)
RNA 1: B1 RNA 1
RNA 2: B1 RNA 2 with U27G, G29U, U52A, U53G, U54A
B25: target 1 MT 5'PFS GCU 3'PFS AGC (mixed)
RNA 1: B1 RNA 1
RNA 2: B1 RNA 2 with U27G, G29U, U52A, U53G, U54C
B26: target 1 MT 5'PFS GGC 3'PFS UGA (mixed)
RNA 1: B1 RNA 1
RNA 2: B1 RNA 2 with U27G, C28G, G29C, U53G, U54A
B27: target 1 MT 5'PFS GAA 3'PFS CUA (mixed)
RNA 1: B1 RNA 1
RNA 2: B1 RNA 2 with U27G, C28A, G29A, U52C, U54A
B28: target 1 insC 3' of 20,insU 3' of 2 (mixed)
RNA 1: B1 RNA 1
RNA 2: GGGAAUGGAUCCACAUCUACGAAUUCGUACCACUAGAGAGGUUAUCCGCUCUACCGAGAUCGGAAGAGCACACGU
B29: target 1 MT 5'PFS CCU 3'PFS AUC (mixed)
RNA 1: B1 RNA 1
RNA 2: B1 RNA 2 with U27C, G29U, U52A, U54C
B30: target 1 MT 5'PFS CUU 3'PFS AAU (mixed)
RNA 1: B1 RNA 1
RNA 2: B1 RNA 2 with U27C, C28U, G29U, U52A, U53A
B31: target 1 MT 5'PFS GGC 3'PFS UGU (mixed)
RNA 1: B1 RNA 1
RNA 2: B1 RNA 2 with U27G, C28G, G29C, U53G
B32: target 1 MT 5'PFS UUG 3'PFS AAU (mixed)
RNA 1: B1 RNA 1
RNA 2: B1 RNA 2 with C28U, U52A, U53A
B33: target 1 MT 5'PFS GGG 3'PFS CAA (mixed)
RNA 1: B1 RNA 1
RNA 2: B1 RNA 2 with U27G, C28G, U52C, U53A, U54A
B34: target 1 MT 5'PFS UUG 3'PFS AAC (mixed)
RNA 1: B1 RNA 1
RNA 2: B1 RNA 2 with C28U, U52A, U53A, U54C
B35: target 1 MT 5'PFS CCU 3'PFS UCG (mixed)
RNA 1: B1 RNA 1
RNA 2: B1 RNA 2 with U27C, G29U, U53C, U54G
B36: target 1 MT 5'PFS ACA 3'PFS AGG (mixed)
RNA 1: B1 RNA 1
RNA 2: B1 RNA 2 with U27A, G29A, U52A, U53G, U54G
B37: target 1 MT 5'PFS GGC 3'PFS UGG (mixed)
RNA 1: B1 RNA 1
RNA 2: B1 RNA 2 with U27G, C28G, G29C, U53G, U54G

Residue numbers refer to the chain shown, from its start. In names and notes the source's numbering stands.

As usually defined, the Kd is a measure of binding affinity in units of concentration.

For the series, the target named is T1, EsCas13d, nuclease-dead (Eubacterium siraeum, UniProt B0MS50, R295A;H300A;R849A;H854A).
T1 sequence: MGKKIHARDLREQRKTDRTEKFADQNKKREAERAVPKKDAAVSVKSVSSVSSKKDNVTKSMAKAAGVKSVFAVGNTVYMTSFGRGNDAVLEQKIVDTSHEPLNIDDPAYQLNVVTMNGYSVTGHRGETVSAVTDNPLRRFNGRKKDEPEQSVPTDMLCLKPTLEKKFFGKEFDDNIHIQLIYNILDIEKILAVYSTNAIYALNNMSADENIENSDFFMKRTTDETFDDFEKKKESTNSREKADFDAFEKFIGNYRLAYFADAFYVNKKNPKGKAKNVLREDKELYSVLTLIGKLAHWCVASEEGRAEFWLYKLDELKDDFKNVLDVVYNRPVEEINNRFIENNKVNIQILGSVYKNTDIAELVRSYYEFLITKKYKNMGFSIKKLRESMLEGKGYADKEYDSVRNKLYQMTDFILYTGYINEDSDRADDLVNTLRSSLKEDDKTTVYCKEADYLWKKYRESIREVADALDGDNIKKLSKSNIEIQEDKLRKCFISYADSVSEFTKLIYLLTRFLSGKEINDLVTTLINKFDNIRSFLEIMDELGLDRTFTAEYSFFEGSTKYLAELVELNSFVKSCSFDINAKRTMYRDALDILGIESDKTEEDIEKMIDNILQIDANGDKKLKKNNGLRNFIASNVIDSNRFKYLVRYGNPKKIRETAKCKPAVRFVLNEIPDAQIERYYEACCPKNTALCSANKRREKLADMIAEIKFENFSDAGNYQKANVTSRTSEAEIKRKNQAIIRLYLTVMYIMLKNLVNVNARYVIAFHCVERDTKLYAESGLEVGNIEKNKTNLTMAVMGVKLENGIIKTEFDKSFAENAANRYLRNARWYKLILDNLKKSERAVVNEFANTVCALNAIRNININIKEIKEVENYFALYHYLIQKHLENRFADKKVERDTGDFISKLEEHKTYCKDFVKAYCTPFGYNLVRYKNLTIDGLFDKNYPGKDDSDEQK
Put plainly: crRNA (strand 1, pre-loaded); Mg2+; 40 mM Tris-HCl pH 7.5, 150 mM NaCl, 6 mM MgCl2, 1 mM DTT, 0.1% Tween-20, 0.2 mg/ml BSA; 25 C; 10 min per concentration, then washed. The conditions noted are these: tags: His6-TwinStrep-SUMO cleaved; N-terminal SNAP kept (SNAP-Surface 488); label: 3' end held by stalled T7 RNA polymerase.
B1: binding was characterised by a dissociation constant (Kd) of 24 ± 5 nM. To B2 belongs 32 ± 12 nM. To B3 belongs 5.14 ± 0.38 nM. Regarding B4, the Kd worked out at 14 ± 5 nM. B5 had a Kd of 73 ± 28 nM. To B6 belongs 20.1 ± 3.45 nM; to B7, ~52 nM; to B8, 7.5 ± 1 nM. To B9 belongs 17.5 ± 1.85 nM; to B10, 40.5 ± 14.5 nM.

In the case of B11, the Kd is ~71.5 nM. Consider B12, for which the Kd is ~55.5 nM. Molecule B13 registered a Kd of 11 ± 2.4 nM. Consider B14, for which binding was put at a Kd of 28.5 ± 6.5 nM. This Kd lies about 2.6-fold higher than the previous one. To B15 belongs 28 ± 4.5 nM; to B16, 14 ± 5 nM.

Regarding B17, the Kd came out at 32 ± 5.5 nM. This Kd lies about 2.3-fold higher than the previous one. To B18 belongs 18.5 ± 7.5 nM; to B19, 41 ± 17.5 nM. To B20 belongs 21 ± 5 nM; to B21, 33 ± 4 nM.

The molecule B22 registered a Kd of 39 ± 9 nM. As for B23, the dissociation constant Kd came to 29 ± 7 nM. To B24 belongs 56 ± 16.5 nM; to B25, 36 ± 7 nM; to B26, 11.7 ± 1.45 nM. To B27 belongs ~40 nM; to B28, 14.7 ± 1 nM. In the case of B29, the Kd came to 21 ± 8 nM.

With B30, the Kd stood at 58 ± 27 nM.

For the molecule B31, binding was put at a Kd of 16.1 ± 2.25 nM. To B32 belongs 22.5 ± 4.25 nM; to B33, 50.5 ± 21.5 nM. To B34 belongs ~41.5 nM. To B35 belongs 14.2 ± 4.1 nM; to B36, ~46 nM. As for B37, the Kd was ~60 nM.

These data come from article PMC10786891, “Massively parallel profiling of RNA-targeting CRISPR-Cas13d”.
